B1: PtxR (natural protein)
chain: MSAALERLNHLNLNHLYAFVAVAEHNSFTAAAEALGLSKSLLSEQLRRLEADLGIQLLTRTTRRMTLTDRGELLFGVAQRMLGELDGALSDVRDLQGEPSGRLRITAPQDFVKWHISSVSAAFIRQFPKVQVEMLADDQFSDLVGQRIDLAVRIGWPRDSGLHASKLCDFQQVAVATPGYLAGLPPVLQPHDLARCEWIGHTRLSTPWTWTFERQRERATVQTRGRLLANNTLAVYRLVLDGAGVSVLPSFLVAREIARGRLVRLLPGWRLPQGGIYALYPSARYMPVRVRAFIESLREHLGREPFRLAQSE
notes: PtxR, LysR-type transcriptional regulator of Pseudomonas aeruginosa PAO1; ptxR gene amplified from chromosomal DNA and cloned NheI/XhoI into pET24b(+); The NheI/XhoI cloning into pET24b(+) may add a few vector residues at both ends; source: E. coli BL21 (DE3), purified (His-Trap chelating column); not shown: His6, C-terminal, kept
B3: PtxS (natural protein)
chain: MNGSVLPSRGRVTINQVAEAAGVSKASVSRYIGGDRQLLADATARRIERAIDQLDYRPNQMARGLKRGRTRLIGMLVADILNPYSVAVMHGVETACREHGYSLVVCNTDRDDEQERHHLAALQSYNVEGLIVNTLGHHPGELRALHRELPMVLVDRQLAELDTDLVGLDNADAVEQALDHLQHRGFRDILLVTEPLDGTSSRIERVQAFNASIGRRPALKGQVLQTDDFFRDGLRAFLSASGPGPKALFTCNGVATLCATRQLRDLGCRLFDEVGLLALDELDWYPLVGSGITALAQPTDEIGRTAFERLLARLEGDREPARRVTFPAQLIVRGSTHPRG
notes: PtxS, LacI family transcriptional regulator of Pseudomonas aeruginosa PAO1; ptxS gene amplified from chromosomal DNA and cloned NheI/XhoI into pET24b(+); The NheI/XhoI cloning into pET24b(+) may add a few vector residues at both ends; source: E. coli BL21 (DE3), purified (His-Trap chelating column); not shown: His6, C-terminal, kept

What was measured:
[1] = biological target: T1, PtxR (Pseudomonas aeruginosa PAO1) (UniProt P72131); assay: EMSA; conditions: ITC: 50 mM HEPES pH 7.9, 300 mM NaCl, 1 mM DTT, 10% glycerol, 20 C. EMSA/footprint: 50 mM Tris-HCl pH 7.5, 10 mM NaCl, 0.5 M Mg acetate (so in the source), 0.1 mM …
T1 sequence: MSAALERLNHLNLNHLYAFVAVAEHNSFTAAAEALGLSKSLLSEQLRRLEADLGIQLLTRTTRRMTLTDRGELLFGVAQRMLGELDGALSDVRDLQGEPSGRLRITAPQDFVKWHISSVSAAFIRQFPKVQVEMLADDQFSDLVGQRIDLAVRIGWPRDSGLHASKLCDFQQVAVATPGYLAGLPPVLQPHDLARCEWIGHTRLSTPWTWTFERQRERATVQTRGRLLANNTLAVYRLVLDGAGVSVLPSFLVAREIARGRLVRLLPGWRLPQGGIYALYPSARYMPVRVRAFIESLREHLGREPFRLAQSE

[2] = biological target: T2, PtxS (Pseudomonas aeruginosa PAO1) (UniProt G3XD97); assay: EMSA; conditions: ITC: 50 mM HEPES pH 7.9, 300 mM NaCl, 1 mM DTT, 10% glycerol, 20 C. EMSA/footprint: 50 mM Tris-HCl pH 7.5, 10 mM NaCl, 0.5 M Mg acetate (so in the source), 0.1 mM …
T2 sequence: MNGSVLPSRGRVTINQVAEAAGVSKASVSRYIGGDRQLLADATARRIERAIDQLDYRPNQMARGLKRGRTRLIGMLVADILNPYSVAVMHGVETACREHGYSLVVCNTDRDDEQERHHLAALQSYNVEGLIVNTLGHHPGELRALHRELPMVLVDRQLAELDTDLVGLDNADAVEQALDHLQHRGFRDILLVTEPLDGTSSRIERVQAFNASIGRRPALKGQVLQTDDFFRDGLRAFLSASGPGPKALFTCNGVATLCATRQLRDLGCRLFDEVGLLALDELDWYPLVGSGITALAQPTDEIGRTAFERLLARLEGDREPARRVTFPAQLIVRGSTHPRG

[3] = biological target: T3, PtxR;PtxS (Pseudomonas aeruginosa PAO1;Pseudomonas aeruginosa PAO1) (UniProt P72131+G3XD97); assay: DNase I footprinting; conditions: ITC: 50 mM HEPES pH 7.9, 300 mM NaCl, 1 mM DTT, 10% glycerol, 20 C. EMSA/footprint: 50 mM Tris-HCl pH 7.5, 10 mM NaCl, 0.5 M Mg acetate (so in the source), 0.1 mM …
T3 sequence 1: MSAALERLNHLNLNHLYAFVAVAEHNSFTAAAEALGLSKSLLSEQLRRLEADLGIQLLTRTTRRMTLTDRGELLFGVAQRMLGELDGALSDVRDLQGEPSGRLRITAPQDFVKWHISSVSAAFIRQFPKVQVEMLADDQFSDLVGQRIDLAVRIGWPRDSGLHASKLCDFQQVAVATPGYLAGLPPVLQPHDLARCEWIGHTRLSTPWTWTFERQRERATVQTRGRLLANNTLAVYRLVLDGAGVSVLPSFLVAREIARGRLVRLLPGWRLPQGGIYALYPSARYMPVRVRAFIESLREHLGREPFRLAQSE
T3 sequence 2: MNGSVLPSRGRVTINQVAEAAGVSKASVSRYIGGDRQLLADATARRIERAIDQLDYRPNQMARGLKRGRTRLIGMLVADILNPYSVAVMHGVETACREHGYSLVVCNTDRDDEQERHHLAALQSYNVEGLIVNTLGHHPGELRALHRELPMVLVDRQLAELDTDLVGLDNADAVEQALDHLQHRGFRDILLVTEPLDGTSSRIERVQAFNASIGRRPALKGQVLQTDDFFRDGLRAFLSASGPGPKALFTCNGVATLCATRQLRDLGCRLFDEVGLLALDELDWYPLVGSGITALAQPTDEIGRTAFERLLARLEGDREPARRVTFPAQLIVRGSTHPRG

[4] = biological target: T1, PtxR (Pseudomonas aeruginosa PAO1); assay: DNase I footprinting; conditions: ITC: 50 mM HEPES pH 7.9, 300 mM NaCl, 1 mM DTT, 10% glycerol, 20 C. EMSA/footprint: 50 mM Tris-HCl pH 7.5, 10 mM NaCl, 0.5 M Mg acetate (so in the source), 0.1 mM …
[5] = biological target: T2, PtxS (Pseudomonas aeruginosa PAO1); assay: DNase I footprinting; conditions: ITC: 50 mM HEPES pH 7.9, 300 mM NaCl, 1 mM DTT, 10% glycerol, 20 C. EMSA/footprint: 50 mM Tris-HCl pH 7.5, 10 mM NaCl, 0.5 M Mg acetate (so in the source), 0.1 mM …
PtxS [6] = biological target: B3; assay: native gel or EMSA; native polyacrylamide gel, 10 µM homogeneous PtxS, PtxR or both mixed, 1 h at 120 V, Coomassie stain, confirmed by western blot with an anti-His tag antibody; conditions: both partners purified
PtxS [7] = biological target: T4, PtxS (Pseudomonas aeruginosa PAO1, UniProt G3XD97 1-340); assay: ITC; ITC: 50 mM HEPES pH 7.9, 300 mM NaCl, 1 mM DTT, 10% glycerol, 20 C. EMSA/footprint: 50 mM Tris-HCl pH 7.5, 10 mM NaCl, 0.5 M Mg acetate (so in the source), 0.1 mM EDTA, 1 mM DTT, 5% glycerol, 30 C; EMSA with 20 ug/ml poly(dIC), 200 ug/ml BSA; conditions: protein: recombinant; tags: C-terminal His6 (pET24b); chain copies: 2; blunt
T4 sequence: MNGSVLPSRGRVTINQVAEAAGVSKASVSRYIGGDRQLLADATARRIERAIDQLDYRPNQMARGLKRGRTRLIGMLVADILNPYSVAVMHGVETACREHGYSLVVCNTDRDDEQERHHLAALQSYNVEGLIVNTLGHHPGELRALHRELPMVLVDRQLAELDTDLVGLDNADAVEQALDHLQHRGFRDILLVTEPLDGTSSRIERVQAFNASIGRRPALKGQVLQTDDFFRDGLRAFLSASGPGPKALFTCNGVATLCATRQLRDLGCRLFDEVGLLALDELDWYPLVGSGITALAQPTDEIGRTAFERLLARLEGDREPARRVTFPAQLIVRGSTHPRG

PtxR K39A = PtxR K39A (Pseudomonas aeruginosa PAO1, UniProt P72131 1-312, K39A); assay: as above; conditions: protein: recombinant; tags: C-terminal His6 (pET24b); chain copies: 4; blunt
PtxR D52A = PtxR D52A (Pseudomonas aeruginosa PAO1, UniProt P72131 1-312, D52A); assay: as above; conditions: protein: recombinant; tags: C-terminal His6 (pET24b); chain copies: 4; blunt
PtxR R47A = PtxR R47A (Pseudomonas aeruginosa PAO1, UniProt P72131 1-312, R47A); assay: as above; conditions: protein: recombinant; tags: C-terminal His6 (pET24b); chain copies: 4; blunt
PtxR E44A = PtxR E44A (Pseudomonas aeruginosa PAO1, UniProt P72131 1-312, E44A); assay: as above; conditions: protein: recombinant; tags: C-terminal His6 (pET24b); chain copies: 4; blunt
PtxR [8] = biological target: T5, PtxR (Pseudomonas aeruginosa PAO1, UniProt P72131 1-312); assay: as above; conditions: protein: recombinant; tags: C-terminal His6 (pET24b); chain copies: 4; blunt
T5 sequence: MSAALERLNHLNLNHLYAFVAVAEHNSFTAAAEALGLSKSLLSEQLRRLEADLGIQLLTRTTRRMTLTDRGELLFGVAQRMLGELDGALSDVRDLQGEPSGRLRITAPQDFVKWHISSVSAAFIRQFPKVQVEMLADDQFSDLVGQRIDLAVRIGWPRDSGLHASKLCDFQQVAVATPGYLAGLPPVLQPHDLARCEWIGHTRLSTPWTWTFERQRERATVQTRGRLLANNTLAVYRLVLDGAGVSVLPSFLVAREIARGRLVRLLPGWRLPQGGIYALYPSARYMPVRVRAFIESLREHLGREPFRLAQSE

PtxR S40A = PtxR S40A (Pseudomonas aeruginosa PAO1, UniProt P72131 1-312, S40A); assay: as above; conditions: protein: recombinant; tags: C-terminal His6 (pET24b); chain copies: 4; blunt
PtxR [9] = biological target: B1; assay: ITC; 5 µM PtxR saturated beforehand with 50 µM duplex DNA of P_(toxA) holding the PtxR operator, titrated with 50 µM PtxS; 20°C, 50 mM HEPES pH 7.9, 300 mM NaCl, 1 mM dithiothreitol, 10% glycerol; two binding site model; conditions: both partners purified
PtxR [10] = biological target: B1; assay: ITC; free proteins; 50 µM PtxS in 3.2 µl aliquots into PtxR (3 µM by the legend); 20°C, 50 mM HEPES pH 7.9, 300 mM NaCl, 1 mM dithiothreitol, 10% glycerol; two binding site model; conditions: both partners purified

“CAACTGATCGTTCGCGGCTCGACCCATCCACGCGGCTAGCGGCCCGCCGCCGGCGCGTTGCCGGCGGCTTTCGCACGGCTTGAAATGAAACCGGTTTCAGAGGATCGCCAATGTCCCTTCACCCCGTCTCCATCAGTCTTTCCAGCTATGGCGCGGACCTCGTTCGCAGTCGCGGCCAGGCCAGCTTCCTGCCCTTGCTGGCGATGGCCGGCGCGCAGCGCGTGGAACTGCGCGAGGAACTCTTCGCCGGCCCGCCGGATACCGAGGCGCTGACCGCCGCCATCCAGTT (double strand) [Pkgu promoter fragment]” was tested, and the binding [1] was “binds” and the binding [2] was “binds”.

For “CCGTTGACGGCCTTGTCATCGGGCATGGTGGGGTCCTCTCTGGATCATCACGGTTTCGTCTTTCTGATAATGATTAGCAGGCTAATTATAAGTTCATGTGTCACGTTGAAAAAACGTTTCAGCAAGGATTCAGGCAGGCCAATACCGGCAAGTGAAGCAGAACGGCGCGCCGGGCGTCGGCCCGGCGCGGCCTTCAGGCGCCTCGCCGTCGCGCCCAGGCCGAAGGATTGACCAGGTTCAGCGGCC (double strand) [Pgad promoter fragment]”, the binding [3] was “binds”, the binding [4] was “binds” and the binding [5] was “binds”. For the same molecule, the binding [1] was “binds” and the binding [2] was “binds”.

B1: binds (PtxS [6]).

B2: PtoxA 50-mer (-58 to -8) (dsDNA)
DNA 1: GATATCGGCTGCTGGCCAGGGGCGCCAGCGCCGACAGCCTCGTGCTTCAA
DNA 2: TTGAAGCACGAGGCTGTCGGCGCTGGCGCCCCTGGCCAGCAGCCGATATC
B2: no binding (PtxS [7]); no binding (PtxR K39A); no binding (PtxR D52A). The Kd (PtxR R47A) was 240 ± 11 nM, the binding result (PtxR E44A) was “no binding” and the Kd (PtxR [8]) was 164 ± 6 nM. B2: no binding (PtxR S40A).

For B3, the “KD of the first event, PtxR bound to DNA” value (PtxR [9]) was about 1700 nM, the “KD of the second event, PtxR bound to DNA” value (PtxR [9]) was about 8200 nM and the “KD of the first, high affinity event” value (PtxR [10]) was 12 ± 3 nM. The “KD of the second, lower affinity event” value (PtxR [10]) was 102 ± 10 nM, the “dH of the first, high affinity event” value (PtxR [10]) was -17.8 ± 0.9 kcal/mol and the “dH of the second, lower affinity event” value (PtxR [10]) was -9.1 ± 0.5 kcal/mol. The “stoichiometry N” value (PtxR [10]) was 1.02.

B4: PtoxA 50-mer mutant operator (dsDNA)
DNA 1: GATATCGGCTGCTGGCCAGGCCGACAGCCTCGTGCTTCAA
DNA 2: TTGAAGCACGAGGCTGTCGGCCTGGCCAGCAGCCGATATC
B4: no binding (PtxR [8]).
